# Results: the nanobody polyreactivity screen of Harvey et al. (2022)
# Experiment: yeast display, Sf9 membrane polyspecificity reagent, FACS + sequencing; frameworks hold sequencing errors
# Outline: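 Sorting gates, low and high (top ~1%), were placed on anti-HA fluorescence to track expression and on streptavidin fluorescence to track reagent binding. A clone's polyreactivity label is taken from the gate it came out of. The reagent was 10% biotinylated, detergent-solubilized Sf9 membrane, applied for 1 hour at 4 °C to galactose-induced yeast display cells.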
row,Sequence,polyreactivity (PSR sort gate)
1,QVQLVESGGGLVQAGGSLRLSCAASGRIFGSYAMGWYRQAPGKERELVASIRSGGRTKYADSVKGRFTISRDNAKNTVYLQMNSLKPEVTAVYYCAVPIEWDYGYWGQGTQVTVSS,low polyreactivity
2,QVQLVESGGGLVQAGGSLRLSCAASGRIFGSYAMGWYRQAPGKERELVASIRSRGGRTYYADSVKGRFTISRDNAKNTVYLQMNSLKPEDTAVYYCAADVGVYYYSFYYWGQGTQVTVSS,high polyreactivity
3,QVQLVESGGGLVQAGGSLRLSCAASGRIFGSYTMGWYRQAPGKERELVAAISFSGARTRYADSVKGRFTISRDNAKNTVYLQMNSLKPEDTAVYYCAARFTGGKYDYWGQGTQVTVSS,high polyreactivity
4,QVQLVESGGGLVQAGGSLRLSCAASGRIFGSYTMGWYRQAPGKERELVAGISRRGGSTYYADSVKGRFTISRDNAKNTVYLQMNSLKPEDTAVYYCAAEVYYFYFYIMDYWGQGTQVTVSS,high polyreactivity
5,QVQLVESGGGLVQAGGSLRLSCAASGRIFGTNAMGWYRPAPGKERELVARITISTASTYYADSVKGRFTISRDNAKNTVSLQMNSLKPEDTAVYYCGVRWYIRSRPKVYKYDYWGQGTQVTVSS,high polyreactivity
6,QVQLVESGGGLVQAGGSLRLSCAASGRIFGTNAMGWYRQAPGKERELVAAITWRGGSTYYADSVKGRFTISRDNAKNTVYLQMNSLKPVDTAVYYCAKDLVYWYQTIRAGISNYWGQGTQVTVSS,low polyreactivity
7,QVQLVESGGGLVQAGGSLRLSCAASGRIFGVNAMGWYRQAPGKERELVAAISRSGGSTYYADSVKGRFTISRDNAKNTVYLQMNSRKPEDTAVYYCATDHFYYRQKYWAYYYWGQGTQVTVSS,high polyreactivity
8,QVQLVESGGGLVQAGGSLRLSCAASGRIFGVNAMGWYRQAPWKERELVAAINYSGGRTSYADSVKGRFTISRDNAKNTVYLQMNSLKPEDTAVYYCNAGGRRRIFAHSSTGDYWGQGTQVTVSS,high polyreactivity
9,QVQLVESGGGLVQAGGSLRLSCAASGRIFGVNARGWYRQAPGKERELVATITRGGNTNYADSVKGRFTISRDNAKNTVYLQMNSLKPEDTAVYYCNADRYRTFSRLPYGEYEYWGQGTQVTVSS,low polyreactivity
10,QVQLVESGGGLVQAGGSLRLSCAASGRIFGVYAKGWYRQAPGKERELVAAISEGGGSTNYADSVKGRFTISRDNAKNTVYLQMNSLKPEETSVYYCAATYLTGVRRYYSWGQGSQVTVSS,low polyreactivity
11,QVQLVESGGGLVQAGGSLRLSCAASGRIFGVYAMGCYRQAPGKDRELVAAISSTGGSTYYADSVKGRFTISRDNAKNTVYLQMNSMKPEDTAVYYCEYDYWGQGTQVTVSS,low polyreactivity
12,QVQLVESGGGLVQAGGSLRLSCAASGRIFGVYAMGWYRQAAWKERELVAAITRGASTYYADSVKGRFTISRDNAKNTVYLQMNSLKPEDPAVYYCAVSQYRGIYRKYDYWGQGTQVTVSS,high polyreactivity
13,QVQLVESGGGLVQAGGSLRLSCAASGRIFGVYAMGWYRQAPGKERELVADISWSADSTYYADSVKGRFTISRDNAKNTVYLQMNSLKPEDTAVYYCAADALFNVQNSRGYDYWGQGTQVTVSS,low polyreactivity
14,QVQLVESGGGLVQAGGSLRLSCAASGRIFGWNAMGWYRQAPGKERELVAVIDTGGSTNYADSVKGRFTISRDNAKNTVYLQMNSLKPEDTAVYYCAAVTGIRYFTSEYDYWGQGTQVTVSS,low polyreactivity
15,QVQLVESGGGLVQAGGSLRLSCAASGRIFGWYAMGWYRQAPGKERELVAAINRGGSTNYADSVKGRFTISRDNAKNTVYLQMNSLSPEDTGVYYCAVRGVHYTAVTNIIYGYGYWGQGTQVTVSS,high polyreactivity
16,QVQLVESGGGLVQAGGSLRLSCAASGRIFGYNAMGWYIQAPGKERELVAVITYSGGSTYYADSVKGRFTISRDNAKNTVYLQMNSLKPEDTAVYYCNARPIDRYSGSGKQWPDYNYWGQGTQVTVSS,low polyreactivity
17,QVQLVESGGGLVQAGGSLRLSCAASGRIFGYNAMGWYRLAPGKERELVAAIRSGGSTNYADSVKGRFTISRDNAKNTVYLQMNSLKPEDTAVYYCAADDRWWYTPRPRYNYWGQGTQVTVSS,high polyreactivity
18,QVQLVESGGGLVQAGGSLRLSCAASGRIFGYNAMGWYRQAPGKERELVAAIRRSGNTYADSVKGRFTISRDNAKNTVYLQMNSLKPEDTAVYYCAHRVSKRMYYWGQGTQVTVSS,high polyreactivity
19,QVQLVESGGGLVQAGGSLRLSCAASGRIFGYNAMGWYRQAPGKERELVATISSGGGTNYADSVKGRFTISRDNAKNTVYLQMNSLKPEDTAVYYCNARIVYYYKRYTRDYEYWGQGTQVTVSS,low polyreactivity
20,QVQLVESGGGLVQAGGSLRLSCAASGRIFGYNAMGWYRQAPGKVRELVAAITTSGGSTYYADSVTGRFTISRDTAKNTVYLQMNSLKPEDTAVYYCARDSLQVFYQYASDDYWGQGTQVTVSS,low polyreactivity
21,QVQLVESGGGLVQAGGSLRLSCAASGRIFGYNAMGWYRQAPGTERELVAAISSSGGGTYYADSVKGRFTISRDNAKNTVYLQMNSLKPEDTAVYYCAAYTRPGRYDYWGQGTQVTVSS,high polyreactivity
22,QVQLVESGGGLVQAGGSLRLSCAASGRIFGYYAMGWYRPAPGKERELVAGITSGGITNYADSVKGRFTISRDNAKNTVYLQMNSLKPEDTAVYYCAARSGYYYRVKFYYWGQGTQVSVSS,high polyreactivity

row,Sequence,polyreactivity (PSR sort gate)
1,QVQLVESGGGLVQAGGSLRLSCAASGRIFGYYAMGWYRQAPGKERELVAAIRRSGGSTYADSVKGRFTISRDNAKNTVYLQMNSLKPEDTAVYYCAAGHYWFTKGYHTLYDMDYWGQGTQVTVSS,high polyreactivity
2,QVQLVESGGGLVQAGGSLRLSCAASGRIFGYYAMGWYRQAPGKERELVAAISWSGGSTFYADSVKGRFTISRDYAKNTVYLQMISLKPEDTAVYYCNKDHLVYPSEFYYWGQGTQVTVSS,low polyreactivity
3,QVQLVESGGGLVQAGGSLRLSCAASGRIFGYYAMGWYRQAPGKERELVAAITINGGRTYYADSVKGRFTISRDNAKNTVYLQMNSLKPEDTAVYYCTATSRYNRLGYWGQGTQVTVSS,high polyreactivity
4,QVQLVESGGGLVQAGGSLRLSCAASGRIFGYYAMGWYRQAPGKERELVAAITSGGRTNYADSVKGRFTISRDNAKNTVYLQMNSLKPEDTAVYYCAKEYPRYSSPYDYWGQGTQVTVSS,low polyreactivity
5,QVQLVESGGGLVQAGGSLRLSCAASGRIFGYYAMGWYRQAPGKERELVAAITSGGRTYYADSVKGRFTISRDNAKNTVYLHMNSLKPEDTAVYYCAAVRALRKVRDYYYWGQGTQVTVSS,high polyreactivity
6,QVQLVESGGGLVQAGGSLRLSCAASGRIFGYYAMGWYRQAPGKERELVAAITWGGGTTRYADSVKGRFTISRDNAKNTVYLQMNSLKPEDTAVYYCATALWVRYYGQGGYIRRYDYWGQGTQVTVSS,high polyreactivity
7,QVQLVESGGGLVQAGGSLRLSCAASGRIFGYYAMGWYRQAPGKERELVARITWSGGDTYYADSVKGRFTISRDNAKNTVYLQMNSLKPEDTAVYYCAADYLDSTYGYVYGWDDYWGQGTQVTVSS,low polyreactivity
8,QVQLVESGGGLVQAGGSLRLSCAASGRIFGYYAMGWYRQAPGKERELVDSISSNGTSTYYADSVKGRFTISRDNAKNTVYLQMNSLKPEDTAVYYCAASYWYDKAYDYWGHGTQVTVSS,low polyreactivity
9,QVQLVESGGGLVQAGGSLRLSCAASGRIFGYYAMGWYRQATGKERELVADITESGTSTYYADSVKGRFTISRDNAKNTVYLQMNSLKPEDTAVYYCAAGYWWRYALYVYWGQGTQVTVSS,low polyreactivity
10,QVQLVESGGGLVQAGGSLRLSCAASGRIFGYYSMGWYRQAPGKEREFVSTINSVGSTNYADSVKGRFTISRDNAKNTVYLKMNSLKAEDTAVYYGATDSAYTFFSYRLWRHGYWGQGTQVTVSS,low polyreactivity
11,QVQLVESGGGLVQAGGSLRLSCAASGRIFGYYTMGSYRQAPGKEREFVASISSTGGSTYYADSVKGRFTISRDNAKNTVYLQMNSLKPEDTAVYYCAARGRYVIDGYRMYYWGQGTQVTVSS,high polyreactivity
12,QVQLVESGGGLVQAGGSLRLSCAASGRIFGYYTMGWYRQAPGKERELVAAINGRGTSTYYADSVKGRFTISRDNAKNTVYLQMNSLKPEDTAVYYCAADGYTRADDYWGQGTQVTVSS,high polyreactivity
13,QVQLVESGGGLVQAGGSLRLSCAASGRIFGYYVMGWYRQAPGTERELVAAITGGGGSTYYADSVKGRFTISRDNAKNTVYLQMNSLKPEDNAVYYCAADLEDTTYEYDYWGQGTQVTVSS,high polyreactivity
14,QVQLVESGGGLVQAGGSLRLSCAASGRIFHFIAMGWYRQAPGKERELVATITKRGGRTYYADSVKGRFTISRDNAKNTVYLQMNSLKPEDTAVYYCNADQSRYSAVSGYDYWGQGTQVTVSS,high polyreactivity
15,QVQLVESGGGLVQAGGSLRLSCAASGRIFHFNAMGWYRQAPGTEKELVATITKRGGRTYYADSVKGRFTISRDNAKNTVYLQMNSLKPDDTAVYYCNADQTRYSAVSGYDYWGQGTQVTVSS,high polyreactivity
16,QVQLVESGGGLVQAGGSLRLSCAASGRIFHGYAMGWYRQAPGKERDLDAAISWRGDSTYYADSVKGRFTISRDNAKNTVYLQINSLKPEDTAVYYCAAASRSWRDDYWGQCTQVTVSS,low polyreactivity
17,QVQLVESGGGLVQAGGSLRLSCAASGRIFHNYAMGWYRQAPGKERELVAGISSRGGSTYYADSVKGRFTISRDNAKNTVYLQMNSLKPEDTAVYYCAKDKSPYGYATNQYRKYYYWGQGTQVTVSS,low polyreactivity
18,QVQLVESGGGLVQAGGSLRLSCAASGRIFHRNAMGWYRQAPGKERELVATIRGNGGSTYYADSVKGRFTISRDNAKNTVYLQMNSLKPEDTAVYYCALDAQGYGGWWTYSRFYSWGQGTQVTVSS,high polyreactivity
19,QVQLVESGGGLVQAGGSLRLSCAASGRIFHRYAMGWYRQAPGKEREFVAAITYSTGTTYYADSVKGRFTISRDNAKNTVYLQMNSLKPEDTAVYYCAKDSRFWHKSWFAYGYDYWGQGTQVTVSS,low polyreactivity
20,QVQLVESGGGLVQAGGSLRLSCAASGRIFHSNTKGWYRQAPGKERELVARISSVGSTNYADSVKGRFTISRDNAKNTVYLQMNSQKPEDTAVYYCAAQRYYTQSSYYLALYDFWGQGTQVTVSS,low polyreactivity
21,QVQLVESGGGLVQAGGSLRLSCAASGRIFHWYAMGWYSQAPGKERELVAAISTDGSTYYADSVKGRFTISRDNAKNTVYLQKNSLKPEDTAVYYCAAVPGYTHLWGGPFDYGGQGTQVTVSS,low polyreactivity
